Laboratory results published in article doi:10.1101/2021.11.08.467742.

Target: Vibrio maritimus FtsA residues 1-396 (Vibrio maritimus)
Assay: SPR

Vibrio maritimus FtsN cytoplasmic peptide, residues 1-29
fold weaker than the EcFtsA^1-405-EcFtsN^1-32 interaction (SPR): 3 fold
